# Results published in patent US20050064507A1, “Determining kinase specificity” (priority 2003, published 2005).
# What was measured:
# PKC-theta = target: T1, PKC-theta (Homo sapiens, UniProt Q04759); test: In vitro kinase assay: peptide phosphorylation by PKC-theta; format: biochemical; conditions: for PKC theta phosphorylation: normalized to best substrate
# T1 construct: His-tag; made in house; host or cells: baculovirus-infected Sf9 cells
# How it was run: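 Recombinant human PKC-theta, expressed in baculovirus-infected Sf9 cells and purified on a nickel chelating column, was incubated with biotinylated peptides, 100 μM ATP containing ^32P-gamma ATP, and PKC buffer with CaCl2, MgCl2, phosphatidyl serine and PMA at 30° C. Reactions were stopped with ATP/EDTA. Peptides were captured on streptavidin-coated plates, and phosphorylation was normalized to the best substrate.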
# PKC-alpha = target: T2, PKC-alpha (Homo sapiens, UniProt P17252); test: In vitro kinase assay: peptide phosphorylation by PKC-alpha; format: biochemical; conditions: for PKC alpha phosphorylation: normalized to best substrate
# T2 construct: purchased Calbiochem
# How it was run: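 Purified active human PKC-alpha, 5-20 ng per well, phosphorylated biotinylated peptides in duplicate wells with 100 μM ATP including 1 uCi/well of ^32P-gamma ATP. The buffer was 100 mM HEPES, 0.05% Triton-X100, 1 mM CaCl2, 20 mM MgCl2, 0.2 mg/ml phosphatidyl serine and PMA 100 ng/ml. Reactions ran at 30° C., usually for 10 minutes, keeping stoichiometry under 5%. They were stopped with ATP/EDTA, captured on streptavidin plates, washed, and counted by scintillation.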
# T1 sequence (Q04759 whole entry): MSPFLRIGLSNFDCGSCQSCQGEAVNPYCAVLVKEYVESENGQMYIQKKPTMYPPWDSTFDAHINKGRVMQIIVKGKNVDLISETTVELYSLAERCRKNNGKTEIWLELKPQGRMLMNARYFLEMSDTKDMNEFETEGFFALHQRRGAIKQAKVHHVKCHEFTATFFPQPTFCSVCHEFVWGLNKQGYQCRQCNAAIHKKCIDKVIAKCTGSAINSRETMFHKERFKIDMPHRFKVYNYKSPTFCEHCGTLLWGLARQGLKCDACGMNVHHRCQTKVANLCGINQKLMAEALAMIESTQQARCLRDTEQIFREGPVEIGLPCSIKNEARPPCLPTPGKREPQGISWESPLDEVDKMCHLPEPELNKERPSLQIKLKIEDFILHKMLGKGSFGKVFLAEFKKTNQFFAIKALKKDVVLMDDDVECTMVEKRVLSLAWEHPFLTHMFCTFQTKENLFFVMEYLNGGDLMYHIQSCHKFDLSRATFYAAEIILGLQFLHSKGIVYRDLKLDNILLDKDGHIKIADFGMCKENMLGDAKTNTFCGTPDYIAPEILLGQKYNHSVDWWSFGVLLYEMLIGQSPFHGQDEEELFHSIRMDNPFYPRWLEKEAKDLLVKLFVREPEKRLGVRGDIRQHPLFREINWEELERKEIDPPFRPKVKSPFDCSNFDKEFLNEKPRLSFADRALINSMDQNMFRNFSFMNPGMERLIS
Substance,PKC theta phosphorylation (PKC-theta) [%],PKC alpha phosphorylation (PKC-alpha) [%],phosphorylation by PKC theta (PKC-theta; peptide concentration 1 uM),phosphorylation by PKC theta (PKC-theta; peptide concentration 10 uM),phosphorylation by PKC alpha (PKC-alpha; peptide concentration 1 uM),phosphorylation by PKC alpha (PKC-alpha; peptide concentration 10 uM)
81 (KRERKTSSKSSVRKRR) [compound 81],46,62,,,,
87 (RQGKRKTSIKRDTVNPL) [compound 87],65,46,,,,
88 (KKPFKLSGLSFKRNRKE) [compound 88],38,48,,,,
91 (VHYTSKDTLRKRHYWR) [compound 91],10,60,,,,
97 (KKRSSKKEASMKKVVRP) [compound 97],31,37,,,,
98 (AGPLRKSSLKKGGRL) [compound 98],22,25,,,,
148 (RELEQLKAEYLERRASRRRA) [compound 148],,,34,34,19,22
149 (RVVQSVKHTKRKSSTVMK) [compound 149],,,13,14,33,52
150 (VDPFYEMLAARKKRISVKKK) [compound 150],,,35,35,12,11
151 (PQNSLKASNRKKKRTSFKRK) [compound 151],,,25,19,17,16
152 (DLIEGRKGAQIVKRASLKRG) [compound 152],,,31,30,13,12
153 (TYLLPDKSRQGKRKTSIKRD) [compound 153],,,22,18,17,22
